Data on two molecules can be found in publication PMC3170326, “AKAP12 and AKAP5 form higher-order hetero-oligomers” (Journal of Molecular Signaling, 2011).

Test [1] deals with His-tagged AKAP12 (purified, used for steric-exclusion chromatography) (human) (UniProt Q02952). Put plainly: SEC; purified His-tagged AKAP5 or AKAP12 alone on HiPrep Sephacryl S-400 HR 16/60, PBS with 0.01% NaN3; fractions analysed by SDS-PAGE and immunoblot; homo-oligomer size from elution position. (In general: Size exclusion chromatography separates by hydrodynamic size, large species first.)

Test [2] addresses T1, HA-tagged full-length AKAP5 (human, UniProt P24588 1-427).
T1 construct: AKAP5 (AKAP79), human, full length; pCMV-HA vector; also called HA-AKAP5; source: A431 cells, transiently transfected, in lysate
Kind of test: co-IP; anti-HA immunoprecipitation from whole-cell lysates of A431 cells co-expressing an HA-tagged and a GFP-tagged AKAP; cells untreated, treated with 10 uM isoproterenol for 10-30 min, or washed free of agonist for 2 h; immunoblot. The following applies: partners not purified. Background: Immunoblotting shows a protein as a band on a membrane.

T1 sequence (P24588 whole entry): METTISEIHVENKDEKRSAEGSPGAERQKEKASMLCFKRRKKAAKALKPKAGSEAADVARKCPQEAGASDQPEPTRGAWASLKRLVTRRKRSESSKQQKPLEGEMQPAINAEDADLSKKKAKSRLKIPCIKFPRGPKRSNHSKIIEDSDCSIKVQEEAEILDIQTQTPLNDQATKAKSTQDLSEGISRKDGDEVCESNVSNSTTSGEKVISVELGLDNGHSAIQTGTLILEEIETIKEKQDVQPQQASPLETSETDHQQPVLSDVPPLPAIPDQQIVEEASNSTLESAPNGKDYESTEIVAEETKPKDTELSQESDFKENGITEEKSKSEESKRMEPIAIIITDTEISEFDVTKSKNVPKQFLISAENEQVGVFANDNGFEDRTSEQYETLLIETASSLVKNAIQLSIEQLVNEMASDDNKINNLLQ

A word on the stoichiometry N: it is the number of molecules, sites or subunits per partner or assembly. The molecule “His-tagged AKAP12 (purified, used for steric-exclusion chromatography) (from UniProt Q02952 1-1782) (natural protein)” displayed a stoichiometry N in test [1] of 4.

B1: GFP-tagged AKAP12 (natural protein, human, UniProt Q02952 1-1782, looked up)
chain: MGAGSSTEQRSPEQPPEGSSTPAEPEPSGGGPSAEAAPDTTADPAIAASDPATKLLQKNGQLSTINGVAEQDELSLQEGDLNGQKGALNGQGALNSQEEEEVIVTEVGQRDSEDVSKRDSDKEMATKSAVVHDITDDGQEETPEIIEQIPSSESNLEELTQPTESQANDIGFKKVFKFVGFKFTVKKDKTEKPDTVQLLTVKKDEGEGAAGAGDHKDPSLGAGEAASKESEPKQSTEKPEETLKREQSHAEISPPAESGQAVEECKEEGEEKQEKEPSKSAESPTSPVTSETGSTFKKFFTQGWAGWRKKTSFRKPKEDEVEASEKKKEQEPEKVDTEEDGKAEVASEKLTASEQAHPQEPAESAHEPRLSAEYEKVELPSEEQVSGSQGPSEEKPAPLATEVFDEKIEVHQEEVVAEVHVSTVEERTEEQKTEVEETAGSVPAEELVEMDAEPQEAEPAKELVKLKETCVSGEDPTQGADLSPDEKVLSKPPEGVVSEVEMLSSQERMKVQGSPLKKLFTSTGLKKLSGKKQKGKRGGGDEESGEHTQVPADSPDSQEEQKGESSASSPEEPEEITCLEKGLAEVQQDGEAEEGATSDGEKKREGVTPWASFKKMVTPKKRVRRPSESDKEDELDKVKSATLSSTESTASEMQEEMKGSVEEPKPEEPKRKVDTSVSWEALICVGSSKKRARRGSSSDEEGGPKAMGGDHQKADEAGKDKETGTDGILAGSQEHDPGQGSSSPEQAGSPTEGEGVSTWESFKRLVTPRKKSKSKLEEKSEDSIAGSGVEHSTPDTEPGKEESWVSIKKFIPGRRKKRPDGKQEQAPVEDAGPTGANEDDSDVPAVVPLSEYDAVEREKMEAQQAQKSAEQPEQKAATEVSKELSESQVHMMAAAVADGTRAATIIEERSPSWISASVTEPLEQVEAEAALLTEEVLEREVIAEEEPPTVTEPLPENREARGDTVVSEAELTPEAVTAAETAGPLGAEEGTEASAAEETTEMVSAVSQLTDSPDTTEEATPVQEVEGGVPDIEEQERRTQEVLQAVAEKVKEESQLPGTGGPEDVLQPVQRAEAERPEEQAEASGLKKETDVVLKVDAQEAKTEPFTQGKVVGQTTPESFEKAPQVTESIESSELVTTCQAETLAGVKSQEMVMEQAIPPDSVETPTDSETDGSTPVADFDAPGTTQKDEIVEIHEENEVASGTQSGGTEAEAVPAQKERPPAPSSFVFQEETKEQSKMEDTLEHTDKEVSVETVSILSKTEGTQEADQYADEKTKDVPFFEGLEGSIDTGITVSREKVTEVALKGEGTEEAECKKDDALELQSHAKSPPSPVEREMVVQVEREKTEAEPTHVNEEKLEHETAVTVSEEVSKQLLQTVNVPIIDGAKEVSSLEGSPPPCLGQEEAVCTKIQVQSSEASFTLTAAAEEEKVLGETANILETGETLEPAGAHLVLEEKSSEKNEDFAAHPGEDAVPTGPDCQAKSTPVIVSATTKKGLSSDLEGEKTTSLKWKSDEVDEQVACQEVKVSVAIEDLEPENGILELETKSSKLVQNIIQTAVDQFVRTEETATEMLTSELQTQAHVIKADSQDAGQETEKEGEEPQASAQDETPITSAKEESESTAVGQAHSDISKDMSEASEKTMTVEVEGSTVNDQQLEEVVLPSEEEGGGAGTKSVPEDDGHALLAERIEKSLVEPKEDEKGDDVDDPENQNSALADTDASGGLTKESPDTNGPKQKEKEDAQEVELQEGKVHSESDKAITPQAQEELQKQERESAKSELTES
notes: AKAP12 (gravin), human, full length; also called AKAP12-GFP; full-length AKAP12; source: A431 cells, stably expressing, in lysate
Turning to B1, the “fold increase of AKAP12 co-precipitated with AKAP5 after 30 min isoproterenol, over unstimulated cells” value in test [2] worked out at 4 fold.
